Results published in patent publication US20020068696A1 (published 2002).
One block for each binder: values may come before it.

How the values were obtained:
HA-TRAF2 = target: T1, HA-TRAF2 (UniProt Q12933 1-501, limits assumed); assay: co-immunoprecipitation from 293T lysates, western blot
T1 construct: not shown: HA tag
T1 sequence (looked up): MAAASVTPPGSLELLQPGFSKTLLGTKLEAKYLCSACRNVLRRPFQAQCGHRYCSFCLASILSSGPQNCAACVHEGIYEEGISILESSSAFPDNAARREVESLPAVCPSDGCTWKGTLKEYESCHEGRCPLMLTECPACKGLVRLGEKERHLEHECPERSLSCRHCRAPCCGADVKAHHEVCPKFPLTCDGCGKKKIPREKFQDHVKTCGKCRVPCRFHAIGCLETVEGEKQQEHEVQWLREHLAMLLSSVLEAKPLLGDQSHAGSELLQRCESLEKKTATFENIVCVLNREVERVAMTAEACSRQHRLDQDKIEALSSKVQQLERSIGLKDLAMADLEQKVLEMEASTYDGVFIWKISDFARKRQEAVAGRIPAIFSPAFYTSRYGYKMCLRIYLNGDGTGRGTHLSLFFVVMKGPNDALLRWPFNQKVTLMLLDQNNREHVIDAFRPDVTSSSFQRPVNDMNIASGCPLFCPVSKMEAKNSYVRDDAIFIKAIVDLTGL

HA-TRAF3 = target: T2, HA-TRAF3 (UniProt Q13114 1-568, limits assumed); assay: as above
T2 construct: not shown: HA tag
T2 sequence (looked up): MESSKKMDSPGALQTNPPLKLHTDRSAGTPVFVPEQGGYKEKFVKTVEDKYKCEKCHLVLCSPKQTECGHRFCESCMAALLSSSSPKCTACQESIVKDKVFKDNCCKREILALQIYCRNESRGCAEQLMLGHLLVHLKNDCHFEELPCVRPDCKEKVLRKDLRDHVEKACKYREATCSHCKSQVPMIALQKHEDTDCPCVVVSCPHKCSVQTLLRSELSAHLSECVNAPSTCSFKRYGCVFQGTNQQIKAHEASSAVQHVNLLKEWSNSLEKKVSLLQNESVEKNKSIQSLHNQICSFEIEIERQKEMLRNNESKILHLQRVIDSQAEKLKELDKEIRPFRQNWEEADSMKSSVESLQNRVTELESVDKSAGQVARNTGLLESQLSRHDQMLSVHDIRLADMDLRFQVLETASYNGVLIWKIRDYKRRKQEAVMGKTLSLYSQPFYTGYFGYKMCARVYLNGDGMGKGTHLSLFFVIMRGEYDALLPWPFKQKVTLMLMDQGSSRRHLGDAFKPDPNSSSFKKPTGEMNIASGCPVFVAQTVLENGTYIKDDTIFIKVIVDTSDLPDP

- binding result (HA-TRAF2): no binding
B1: Flag-tagged TRADEβ (receptor)
chain: KVTCETGDCRQQEFRDRSGNCVPCNQCGPGMELSKECGFGYGEDAQCVTCRLHRFKEDWGFQKCKPCLDCAVVNRFQKANCSATSDAICGDCLPGFYRKTKLVGFQDMECVPCGDPPPPYEPHCASKVNLVKIASTASSPRDTALAAVICSALATVLLALLILCVIYCKRQFMEKKPSWSLRSQDIQYNGSELSCLDRPQLHEYAHRACCQCRRDSVQTCGPVRLLPSMCCEEACSPNPATLGCGVHSAASLQARNAGPAGEMVPTFFGSLTQSICGEFSDAWPLMQNPMGGDNISFCDSYPELAGEDIHSLNPELESSTSLDSNSSQDLVGGAVPVQSHSENFTAATDLSRYNNTLVESASTQDALTMRSQLDQESGAIIHPATQTSLQVRQRLGSL
notes: Full-length isoform expressed in 293T cells and tested in cell lysates by co-immunoprecipitation; Position of the Flag tag unknown; Putative 25-residue signal left out; also called Flag tagged TRADE construct; not shown: Flag tag

- binding result (HA-TRAF2): no binding
B2: Flag-tagged TRADEα (receptor)
chain: KVTCESGDCRQQEFRDRSGNCVPCNQCGPGMELSKECGFGYGEDAQCVTCRLHRFKEDWGFQKCKPCLDCAVVNRFQKANCSATSDAICGDCLPGFYRKTKLVGFQDMECVPCGDPPPPYEPHCASKVNLVKIASTASSPRDTALAAVICSALATVLLALLILCVIYCKRQFMEKKPSWSLRSQDIQYNGSELSCFDRPQLHEYAHRACCQCRRDSVQTCGPVRLLPSMCCEEACSPNPATLGCGVHSAASLQARNAGPAGEMVPTFFGSLTQSICGEFSDAWPLMQNPMGGDNISFCDSYPELTGEDIHSLNPELESSTSLDSNSSQDLVGGAVPVQSHSENFTAATDLSRYNNTLVESASTQDALTMRSQLDQESGAIIHPATQTSLQEA
notes: Full-length isoform expressed in 293T cells and tested in cell lysates by co-immunoprecipitation; Position of the Flag tag unknown (written last here only for want of information); Putative 25-residue signal left out; also called Flag tagged TRADE construct; not shown: Flag tag

- binding result (HA-TRAF3): no binding
B3: deletion construct TRADE 1-218 (Flag-tagged) (receptor)
chain: KVTCESGDCRQQEFRDRSGNCVPCNQCGPGMELSKECGFGYGEDAQCVTCRLHRFKEDWGFQKCKPCLDCAVVNRFQKANCSATSDAICGDCLPGFYRKTKLVGFQDMECVPCGDPPPPYEPHCASKVNLVKIASTASSPRDTALAAVICSALATVLLALLILCVIYCKRQFMEKKPSWSLRSQDIQYNGSEL
notes: Putative 25-residue signal left out; not shown: Flag tag
